From patent publication EP4644419A1 (Hangzhou Zhongmeihuadong Pharmaceutical Co., Ltd., dated 2025)

T1: human CD112R antigen protein huCD112R-His (Acro Biosysterm, PVG-H52H4) (human, UniProt Q6DKI7 41-171)
T1 construct: purchased; also called human antigen protein; not shown: His tag
T1 sequence (looked up): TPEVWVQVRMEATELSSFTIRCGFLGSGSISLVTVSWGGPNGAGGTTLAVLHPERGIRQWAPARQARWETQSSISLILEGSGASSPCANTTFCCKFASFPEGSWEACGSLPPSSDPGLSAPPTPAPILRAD

T2: human CD112R on GS-J2C/CD112R effector cells (human, UniProt Q6DKI7 1-326)
T2 sequence (looked up): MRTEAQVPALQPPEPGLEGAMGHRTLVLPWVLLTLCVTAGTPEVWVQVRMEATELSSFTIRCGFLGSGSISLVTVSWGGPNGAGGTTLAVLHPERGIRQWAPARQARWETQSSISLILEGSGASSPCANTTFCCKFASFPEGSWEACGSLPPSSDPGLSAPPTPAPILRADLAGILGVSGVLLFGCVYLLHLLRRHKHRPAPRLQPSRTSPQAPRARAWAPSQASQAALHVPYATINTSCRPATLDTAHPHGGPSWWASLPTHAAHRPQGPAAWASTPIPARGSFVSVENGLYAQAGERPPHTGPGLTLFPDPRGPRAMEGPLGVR

T3: monkey antigen protein (monkey CD112R, Uniprot ID: A0A2K5WVV8) (monkey, UniProt A0A2K5WVV8 41-171)
T3 sequence: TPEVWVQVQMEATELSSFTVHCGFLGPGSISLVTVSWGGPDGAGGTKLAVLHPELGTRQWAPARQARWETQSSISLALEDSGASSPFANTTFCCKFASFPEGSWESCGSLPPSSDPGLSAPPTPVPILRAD

T4: human CD112R on antigen-specific CD8+ T cells (human, UniProt Q6DKI7 1-326)
T4 sequence (looked up): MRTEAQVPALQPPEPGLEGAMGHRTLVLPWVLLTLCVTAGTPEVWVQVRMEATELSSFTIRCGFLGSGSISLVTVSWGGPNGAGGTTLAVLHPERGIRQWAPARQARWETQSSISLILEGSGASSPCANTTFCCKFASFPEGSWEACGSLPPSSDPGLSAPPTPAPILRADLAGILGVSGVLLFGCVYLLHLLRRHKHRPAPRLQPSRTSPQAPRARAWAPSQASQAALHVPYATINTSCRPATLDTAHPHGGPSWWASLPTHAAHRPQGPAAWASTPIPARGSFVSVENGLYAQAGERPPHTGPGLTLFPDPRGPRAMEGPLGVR


Key:
[1] = biological target: T1, human CD112R antigen protein …; assay: ELISA, huCD112R-His coated on plate
[2] = biological target: T2, human CD112R on GS-J2C/CD112R effector …; assay: cell-based or functional assay
[3] = biological target: T3, monkey antigen protein (monkey CD112R, …); assay: ELISA, monkey antigen protein (as Example 6.1)
[4] = biological target: T1, human CD112R antigen protein …; assay: SPR (Biacore X100), antibody captured on Protein A chip, huCD112R-His as analyte, 1:1 Langmuir
[5] = biological target: T4, human CD112R on antigen-specific CD8+ T …; assay: cell-based or functional assay

Binder | EC50 [1] [pM] | EC50 (Blocking effects of the antibodies, reporter gene method) [2] [µg/mL] | EC50 [3] [pM] | Kd [4] [pM] | IFN-γ(pg/ml) at 0.5µg/ml antibody [5] [pg/mL] | IFN-γ(pg/ml) at 5µg/ml antibody [5] [pg/mL] | IFN-γ(pg/ml) at 50µg/ml antibody [5] [pg/mL]
C3 (antibody, human IgG1, kappa, V domains shown) VH: QVQLQQSGPELVKPGASVKISCRSSGYTFTDYYINWVKQRPGQGLEWIGWIFPGSDYTYYNEKFKGKATLTVDKSSTTAYMLLSSLTSEDSAVYFCARDGGLRGPFDYWGQGTTLTVSS VL: DIQMTQSPSSLSASLGGKVTITCKASQDINKYIAWYQQKPGKGPRLLIHYTSTLQPGIPSRFSGSGSGRNSSFSISNLEPEDIATYYCLQYDNLHTFGGGTKLEIKR | 46 | 0.04 | 118 | 181 | 535 | 633 | 755
C41 (antibody, human IgG1, kappa, V domains shown) VH: EVQLQQSGPELVKPGASVKISCKASGNTFTDYYINWVKQSHGKSLEWIGDIEPNNGGTNYNQKFKGKATLTVDKSSSTAYMELRSLTSEDSAIYYCATLYFDYWGQGTTLTVSS VL: DIVMTQSPSSLSVSAGEKVTMSCKSSQSLLNSGNQKNYLAWYQQKPGQPPKLLIYGASTRESGVPDRFTGSGSGTDFTLTISSVQAEDLAVYYCQNDHSYPFTFGSGTKLEIKR | 33 | 0.024 | 52 | 22 | 573 | 751 | 659
C7 (antibody, human IgG1, kappa, V domains shown) VH: EVQLQQSGPELVKPGASVKISCKASGYTLTDYYMNWVKQSHGKSLEWIGDINPNNGGTNFNQKFKGKATLTIDKSSSTTYMELRSLTSEDSAVYYCASLFFDYWGQGTTLTVSS VL: DIVMTQSPSSLSVSAGEKVTMSCKSSQSLLNSGNQKNYLAWYQQKPGQPPKLLIYGASTRESGVPDRFTGSGSGTDFTLTISSVQAEDLALYYCQNAHSSPYTFGGGTKLEIKR | 34 | 0.031 | 80 | 57.6 | 818 | 837 | 
